Legend:
[1] = molecular target: TBEV prMe-linker-sE single-chain construct (Tick-borne encephalitis virus, strain Neudoerfl); test: crystal structure; prMe-linker-sE single chain, crystallisation pH 3.5, PDB 7QRF
[2] = molecular target: TBEV prMe-linker-sE single-chain protein (tick-borne encephalitis virus strain Neudoerfl) (UniProt P14336); test: crystal structure; uncleaved single-chain prMe-linker-sE; PDB 7QRF
[3] = molecular target: Tick-borne encephalitis virus (TBEV) soluble envelope protein E (sE) (Tick-borne encephalitis virus, strain Neudoerfl); test: SEC-MALS
[4] = molecular target: Tick-borne encephalitis virus (TBEV) soluble envelope protein E (sE) (Tick-borne encephalitis virus, strain Neudoerfl); test: crystal structure

TBEV prMe-linker-sE single-chain construct
stoichiometry N [1]: 2

TBEV prMe-linker-sE single-chain protein (from UniProt P14336 2-401)
stoichiometry N [2]: 2

Tick-borne encephalitis virus (TBEV) soluble envelope protein E (sE) (domain or fragment)
stoichiometry N [3]: 2 | stoichiometry N [4]: 2
